Assay results taken from paper PMC3169402, “Structure of fructose bisphosphate aldolase from Encephalitozoon cuniculi” (Acta Crystallographica Section F: Structural Biology and …, 2011).

Target: the molecule itself
Assay: crystal structure; sitting-drop vapour diffusion at 290 K, Bis-Tris propane pH 6.5, PEG 3350; phosphate-bound (2.00 Å) and FBP-bound (2.37 Å) forms, space group C222(1), data at 100 K

B1: Fructose bisphosphate aldolase from Encephalitozoon cuniculi (enzyme, UniProt Q8SSM8 1-338, looked up)
chain: MMDCDHLLRLGMTAKKILENGKGILAADETPKTLGRRFEKLGITNTEENRRKFREILFSTKGIERYIGGVILNQETFEQTSGSGVPLTELLKKKGIEIGIKLDKGLIDYKEKEKISVGLEDLDLRCKSSAFKDATFAKWRSLFYFYDGIPSEDCINENCSILAKYAIICQKNGLVPIVEPEVFLEGDYSMKRSYEVTRQILSTLMKYLNYELVYIPGVLIKASYVTSGQLSNEKYTPKKVATFTLRALLSTIPCGIPGIVFLSGGHGSEDAIGFLNAINMERGCRTWSLSFSFARALTDGVLETWRGDDSNIEEAQKILLETSFKACRGAEGKLWDQE
notes: Fructose bisphosphate aldolase (class I), Encephalitozoon cuniculi, UniProt Q8SSM8, full-length protein, residues 1 to 338; In PDB 3mbf Lys221 forms a Schiff base with fructose 1,6-bisphosphate; also called EcFBPA; FBPA; source: E. coli BL21(DE3)R3 Rosetta, purified (HisTrap IMAC, Superdex 75 SEC)
- stoichiometry N: 2
